Reference: patent US8415306B2, “Insulin-like growth factor 1 receptor binding peptides” (Janssen Biotech, Inc., priority 2010, dated 2013)

Columns and labels:
sIGF1R [1] = target: T1, sIGF1R (Homo sapiens, UniProt P08069); test: ELISA relative binding affinity of PG-peptide fusions for sIGF1R; conditions: for EC50: PG-peptide fusion, ELISA on 2 μg/ml coated sIGF1R, one site binding equation
T1 construct: hexahistidine (C); purchased R&D Systems
Description: The identified IFG1R binding peptides were cloned in-frame to the C-terminus of the protein G IgG domain (PG) in a modified pET17b vector (EMD Chemicals, Gibbstown, N.J.) having a ligation independent cloning site (LIC) to generate PG-peptide fusions. The IgG binding domain of protein G is stable and thus enabled easy purification of the fusion protein from bacterial lysates. The amino acid sequence of the protein G IgG domain used is shown in SEQ ID NO: 31. The PG-peptide fusions were expressed in bacteria upon 1 mM IPTG induction and purified using IgG Sepharose beads (GE Healthcare Life Sciences, Piscataway, N.J.) from the bacterial lysates cleared by centrifugation at 16,000 g, 4° C. for 20 min.
(§1) Relative binding affinities of the PG-peptide fusions for sIGF1R were measured using ELISA. The Kds were determined using GraphPad Prism 4 software with a one site binding equation. 100 μl of 2 μg/ml sIGF1R(R&D Systems, Minneapolis, Minn.) in Dulbecco's Phosphate Buffer Saline (DPBS (−/−)) was coated onto a 96 well Black Maxisorp plates (Nunc, Rochester, N.Y.) overnight at 4° C. The plates were washed with TBST and the wells blocked with 200 μl/well Starting Block T20 (TBS) (Pierce, Rockford, Ill.) for 1 hr, room temperature with 300 rpm shaking. 75 μl/well of purified, serially diluted PG-peptide fusions, starting concentration 40 μM, was added into the wells and incubated for 1 h, room temperature with 300 rpm mixing; the volume was brought up to 100 μl with Starting Block T20. The plates were washed 3× with TBST and then probed with 100 μl/well Peroxidase labeled-Rabbit antibody (1:5000) (Rockland, Gilbertsville, Pa.), washed, and the signal was detected using 100 μl/well POD substrate (Roche, Indianapolis, Ind.). Chemiluminescence was detected using a Molecular Devices M5 plate reader.

[2] = system: rat brain microvascular endothelial cell model; test: in vitro BBB model, transcytosis of peptide-AP fusions; format: cell-based; conditions: 25 μg peptide-AP fusion in top chamber, detected in bottom chamber at 15 and 30 minute by ELISA
Description: Select sIGF1R binding peptides were further characterized in the in vitro blood-brain barrier model, rat brain microvascular endothelial cell model.
Rat Brain capillary endothelial cells were prepared as described (Perriere et al., J. Neurochem. 93:279-289, 2005). Briefly, brains from 6-8 week old male Sprague Dawley rats were rolled on 3 MM chromatography paper to remove the meniges, cut sagitally, and the white matter dissected leaving the cortices, which were then minced thoroughly. The minced cortices were transferred to a 50 ml polypropylene conical tube with 20 ml DMEM supplemented with 39 units/ml DNase I (Worthington, Lakewood, N.J.) and 0.7 mg/ml Collagenase type 2 (Worthington, Lakewood, N.J.) at final concentration and incubated at 37° C. with gentle mixing for 1.25 hrs. After a brief centrifugation the resultant pellet was resuspended in 20 ml 20% BSA (Sigma, St. Louis, Mo.) in DMEM, centrifuged and the microvessel enriched pellet was isolated a digested a second time with 20 ml DMEM supplemented with 39 units/ml DNase 1 and 1 mg/ml Collagenase/Dispase (Roche, Indianapolis, Ind.) at 37° C. for 1 hr. The digestion was briefly centrifuged and the resulting cell pellet was resuspended in 2 ml DMEM and subsequently layered onto the top of a 33% continuous Percoll gradient, centrifuged, and the enriched microvessel fraction was removed and briefly centrifuged a second time. The cell pellet was resuspended in 10 ml complete rat brain microvascular endothelial cell growth media (DMEM, 20% Plasma Derived Serum (PDS), 100 μg/ml Heparin, 2 mM L-Glutamine, 100 U/ml penicillin, 100 μg/ml streptomycin, 0.25 μg/ml amphotericin) and plated onto a 10 cm tissue culture dish for 4 hrs at 37° C., 5% CO2. After 4 hrs cells that remained unattached were pipetted off and counted in a hemacytometer using Trypan Blue. The cells were plated into the top chamber of the Transwells (0.4 μm pore size, diameter 1.12 cm, Corning, Acton, Mass.) treated with 400 μg/ml collagen type IV (Sigma, St. Louis, Mo.) and 100 μg/ml fibronectin (Sigma, St. Louis, Mo.) at a density of 6×10^5 cells/ml, 500 μl per well. 1 ml of growth media was placed into the bottom chamber. Both chambers were supplemented with 4 μg/ml puromycin (Clontech, Mountain View, Calif.) and the plates were incubated at 37° C., 5% CO2 overnight. The next day the media was changed with fresh complete culture media with 4 μg/ml puromycin and the cells were placed back into the incubator overnight. The next day the media was changed with complete culture media and again two days after. Cultures were monitored by eye till they reached 100% confluence, ˜6-7 days after seeding. The developed in vitro BBB model had high transendothelial electrical resistance (>100 ohms-cm^2), measured using Millicell-ERS (Millipore, Billercia, Mass.) and very low Na-Fluorescein permeability (about 1-5×10^−6 cm/s).
25 μg of purified peptide-AP fusions were added to the top chamber of the in vitro BBB model and transcytosed peptide-AP fusions were detected at 15 and 30 minute timepoints in the bottom chamber using ELISA. Briefly, 75 μl of each sample was transferred to plates coated with 5 μg/ml mouse monoclonal anti-bacterial AP antibody (Sigma, St. Louis, Mo.). The plate was incubated for 1 hr, washed, the signal was developed with Attophos Substrate (Roche, Indianapolis, Ind.) according to manufacturer's recommendation, and read using a Molecular Devices M5 plate reader with 440 nm excitation and 550 nm emission.

insulin receptor = insulin receptor (Homo sapiens, UniProt P06213); test: phage lysate binding to insulin receptor (cross-reactivity)
Description: Total of 384 individual phage lysates from the panning were tested for binding specificity towards sIGF1R in a solid phase phage ELISA. Briefly, 100 μl/well of 5 μg/ml sIGF1R (R&D Systems, Minneapolis, Minn.) was bound to Black Maxisorp Plates (Nunc, Rochester, N.Y.), 25 μl of phage lysate added, and the reaction was detected using anti-M13-HRP antibody (EMD Biosciences, Gibbstown, N.J.) and POD substrate (Roche, Indianapolis, Ind.), and the signal detected using a TEKAN plate reader. […] Positive lysates were defined as clones with a sIGF1R specific signal that was three fold above the background of the negative control. A total of 13 clones with unique peptide sequences were obtained with confirmed binding to the sIGF1R (Table 1). From these 13 clones, 3 (clones 5, 13 and 16) cross-reacted with the insulin receptor.

sIGF1R [3] = target: T1, sIGF1R; test: competition ELISA of PG-peptide fusions with IGF-1 on sIGF1R; format: binding; conditions: PG-peptide fusion, IGF-1 400 nM final
Description: as §1
For competition assays, insulin-like growth factor 1 (IGF-1) (R&D Systems, Minneapolis, Minn.) was added to the Starting Block T20 used to bring the volume up to 100 μl at a concentration of 400 nM final.

Row | Substance | EC50 (sIGF1R [1]) | Transcytosis [2] | cross-reaction with the insulin receptor (insulin receptor) | Competed by IGF-1 (sIGF1R [3]) | binding curve shape (binding profile) (sIGF1R [1]; PG-peptide fusion on sIGF1R)
1 | 5 (TGCDFPELCRGCHP; IGF1R binding peptide from pIX library) [Clone 5] | 750 nM | yes | cross-reacted |  | 
2 | 6 (AECEWPWLTLELCQS; IGF1R binding peptide from pIX library) [Clone 6] | 1000 nM | yes |  |  | 
3 | 7 (PFCYSGGPLPYPCTY; IGF1R binding peptide from pIX library) [Clone 7] | 1800 nM |  |  |  | 
4 | 8 (PVCPSFCYDQYVCPT; IGF1R binding peptide from pIX library) [Clone 8] | 1600 nM | yes |  |  | 
5 | 9 (FTCAVYSLSELDCRD; IGF1R binding peptide from pIX library) [Clone 9] | 3500 nM | no |  |  | 
6 | 10 (LSCYDPTLRTLYCHV; IGF1R binding peptide from pIX library) [Clone 10] | 4300 nM |  |  |  | 
7 | 11 (HTCFYPTLMPPELCFD; IGF1R binding peptide from pIX library) [Clone 11] | 1200 nM | no |  | yes | 
8 | 12 (SNCPPLDMRLTELCVM; IGF1R binding peptide from pIX library) [Clone 12] | 1800 nM | yes |  |  | 
9 | 13 (WHCTPLTQIADPGSIIHILECTV; IGF1R binding peptide from pIX library) [Clone 13] | > 50000 nM | no | cross-reacted | yes | 
10 | 14 (VECDTPSITFSPGLEALFWNTCSP; IGF1R binding peptide from pIX library) [Clone 14] | 850 nM | no |  | yes | 
11 | 15 (MTCAWHTLHTDPGLTPQLTLPCIY; IGF1R binding peptide from pIX library) [Clone 15] | 2600 nM |  |  |  | 
12 | 16 (AGCPSPMPPVDPGFYSAIVQLCRE; IGF1R binding peptide from pIX library) [Clone 16] | 8200 nM | yes | cross-reacted | yes | 
13 | 17 (DDIDEFLHQLHNLVNNVH; IGF1R binding peptide from pIX library) [Clone 17] |  | no |  | yes | bellshaped
